In experiment [1] the target is T1, Recombinant human SPARC, full-length, uncleaved (human, UniProt P09486 18-303).
T1 construct: Incubated in MMP buffer without protease and then measured in the SPARC-M ELISA; also called recombinant full-length SPARC; osteonectin
T1 sequence (looked up): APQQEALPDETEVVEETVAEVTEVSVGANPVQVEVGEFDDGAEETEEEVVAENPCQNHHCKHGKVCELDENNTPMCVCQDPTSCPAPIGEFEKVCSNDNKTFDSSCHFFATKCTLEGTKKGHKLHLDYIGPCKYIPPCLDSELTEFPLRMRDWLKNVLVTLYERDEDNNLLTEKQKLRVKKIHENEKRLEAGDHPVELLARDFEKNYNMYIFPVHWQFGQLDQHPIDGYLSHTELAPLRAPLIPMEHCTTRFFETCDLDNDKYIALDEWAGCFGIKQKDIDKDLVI
The experiment in a line: competitive SPARC-M ELISA on recombinant SPARC incubated without protease. In general terms: An ELISA detects its analyte on a solid surface through an enzyme-linked reagent.

The target of experiment [2] is T2, Non-sense coating peptide VPKDLPPDTT-biotin.
T2 construct: Held on streptavidin-coated plates; also called non-sense biotinylated coating peptide
T2 peptide: VPKDLPPDTT-biotin
The experiment in a line: ELISA, peptide coated on a streptavidin plate. The protocol:
The target sequence was used as the standard peptide ([…]; SEQ ID NO: 1). A biotinylated peptide ([…]-K-biotin; SEQ ID NO:7) was included as a coating peptide with addition of a lysine residue to the C-terminal end to ensure biotin linking. The specificity of the antibody was tested by including an elongated standard peptide with an additional amino acid added to the N-terminal of the target peptide sequence ([…]; SEQ ID NO: 2), a truncated standard peptide with a removal of the first N-terminal amino acid ([…]; SEQ ID NO: 3) as well as a non-sense standard peptide ([…]; SEQ ID NO: 4) and a non-sense biotinylated coating peptide ([…]-biotin; SEQ ID NO: 5) in the assay validation. Four peptides (Von Willebrand factor, glucagon, SPARC-like protein 1 and ADAMTS15) with one amino acid mismatch compared to the first six amino acids in the target sequence were also included to further test the antibody specificity. The immunogenic peptide ([…]-GGC-KLH; SEQ ID NO: 6) was generated by covalently cross-linking the standard peptide to Keyhole Limpet Hemocyanin (KLH) carrier protein using Succinimidyl 4-(N-maleimidomethyl)cyclohexane-1-carboxylate, SMCC (Thermo Scientific, Waltham, MA, USA, cat.no. 22336). Glycine and cysteine residues were added at the C-terminal end to ensure right linking of the carrier protein. […]

Experiment [3] concerns the target T3, Standard peptide LLARDFEKNY (human).
T3 construct: Synthetic peptide from Genscript with a free N-terminus; also called calibration peptide
T3 peptide: LLARDFEKNY
The experiment in a line: preliminary competitive ELISA, hybridoma supernatant, 10 ng/mL biotinylated coating peptide. The protocol:
The reactivity of the monoclonal antibody was evaluated by displacement using human serum samples and the standard peptide ([…]; SEQ ID NO: 1) in a preliminary ELISA using 10 ng/mL biotinylated coating peptide on streptavidin-coated microtiter plates (Roche, Basel, Switzerland, cat. #11940279) and the supernatant from the antibody producing monoclonal hybridoma cells. The clone with the best reactivity towards the standard peptide was purified using protein-G-columns according to the manufacturer’s instructions (GE Healthcare Life Sciences, Little Chalfont, UK, cat. #17-0404-01 ).

The target in experiment [4] is T4, Glucagon (GCG) peptide LAARDFINWL (human).
T4 construct: A peptide was tested, not the whole protein
T4 peptide: LAARDFINWL
The experiment in a line: competitive SPARC-M ELISA, peptide as competitor. On the procedure:
(§1) The specificity of the antibody was tested by including an elongated standard peptide with an additional amino acid added to the N-terminal of the target peptide sequence ([…]; SEQ ID NO: 2), a truncated standard peptide with a removal of the first N-terminal amino acid ([…]; SEQ ID NO: 3) as well as a non-sense standard peptide ([…]; SEQ ID NO: 4) and a non-sense biotinylated coating peptide ([…]-biotin; SEQ ID NO: 5) in the assay validation. Four peptides (Von Willebrand factor, glucagon, SPARC-like protein 1 and ADAMTS15) with one amino acid mismatch compared to the first six amino acids in the target sequence were also included to further test the antibody specificity. The immunogenic peptide ([…]-GGC-KLH; SEQ ID NO: 6) was generated by covalently cross-linking the standard peptide to Keyhole Limpet Hemocyanin (KLH) carrier protein using Succinimidyl 4-(N-maleimidomethyl)cyclohexane-1-carboxylate, SMCC (Thermo Scientific, Waltham, MA, USA, cat.no. 22336). Glycine and cysteine residues were added at the C-terminal end to ensure right linking of the carrier protein.
(§2) A 96-well streptavidin-coated microtiter plate was coated with 1.1 ng/mL biotinylated coating peptide dissolved in assay buffer (50 mM Tris-BTB, 4 g/L NaCl, pH 8.0) and incubated for 30 min. at 20° C. in darkness shaking (300 rpm). Twenty µL standard peptide or pre-diluted serum (1:4) were added to appropriate wells, followed by the addition of 100 µL monoclonal antibody dissolved in assay buffer to a concentration of 14 ng/mL to each well and incubated 1 hour at 20° C. in darkness shaking (300 rpm). One hundred µL of goat anti-mouse POD-conjugated IgG antibody (Thermo Scientific, Waltham, MA, USA, cat. #31437) diluted 1:6000 in assay buffer was added to each well and incubated 1 hour at 20° C. in darkness shaking. All incubation steps were followed by five washes in washing buffer (20 mM Tris, 50 mM NaCl, pH 7.2). Finally, 100 µL tetramethylbenzidine (TMB) (cat. 438OH, Kem-En-Tec Diagnostics, Denmark) was added to each well and the plate was incubated for 15 minutes at 20° C. in darkness shaking. The enzymatic reaction was stopped by adding 0.18 M H₂SO₄ and absorbance was measured at 450 nm with 650 nm as reference. A calibration curve was plotted using a 4-parameter logistic curve fit. Data were analyzed using the SoftMax Pro v.6.3 software.

In experiment [5] the target is T5, SPARC-like protein 1 (SLP1) peptide LLLRDFKKNY (human).
T5 construct: A peptide was tested, not the whole protein
T5 peptide: LLLRDFKKNY
Description: competitive SPARC-M ELISA, peptide as competitor. The protocol: as §1, §2

For experiment [6], the target named is T6, Von Willebrand factor (VWF) peptide LLARDCQDHS (human).
T6 construct: A peptide was tested, not the whole protein
T6 peptide: LLARDCQDHS
Description: competitive SPARC-M ELISA, peptide as competitor. The protocol:
as §1, §2

The target of experiment [7] is T7, ADAMTS15 (A15) peptide LLARDQCNLH (human).
T7 construct: A peptide was tested, not the whole protein
T7 peptide: LLARDQCNLH
Description: competitive SPARC-M ELISA, peptide as competitor. The protocol:
as §1, §2

No end group written: not given here.

B1: SPARC-M monoclonal antibody (antibody, mouse IgG1, kappa, V domains shown)
VH: EVKLVESGGGLVKPGGSLKLSCAASGFTFSRNAMSWVRQTPEKRLEWVASISTSDNTYYPDSVKGRFTISKDNARNILYLQMSSLRSEDTAMYYCASGFDVGAYWGQGTLVTVSA
VL: DVLMTQTPLSLPVSLGDQASISCRSSQSIVHSNGNTYLEWYLQKPGQSPKLLIYKVSNRFSGVPDRFSGSGSGTDFTLKISRVDTEDLGVYYCFQGSHVPLTFGAGTKLELKR
notes: also called the antibody; the selected antibody
As for B1, the binding result in experiment [1] is reported as “no binding”; in experiment [2] it was “no binding”; in experiment [3], “binds”; in experiment [4], “no binding”; in experiment [5] it was “no binding”; in experiment [6], “no binding”. The binding result in experiment [7] is reported as “no binding”.

The record behind these values is US20230152323A1 (NORDIC BIOSCIENCE A S, published 2023).
